± gives the uncertainty stated by the source.
Experiment: self-splicing fitness, log relative to wild type (ln ratio); higher = more splicing; Tetrahymena group I intron in knt gene, E. coli kanamycin selection, DiMSum; sequences stand for … in CUCUCU…GGAGGGAAAAGUUAUCAGGCAUGCACCUGGUAGCUAGUCUUUAAACCAAUAGAUUGCAUCGGUUUAAAAGGCAAGACCGUCAAAUUGCGGGAAAGGGGUCAACAGCCGUUCAGUACCAAGUCUCAGGGGAAACUUUGAGAUGGCCUUGCAAAGGGUAUGGUAAUAAGCUGACGGACAUGGUCCUAACCACGCAGCCAAGUCCUAAGUCAACAGAUCUUCUGUUGAUAUGGAUGCAGUUCACAGACUAAAUGUCGGUCGGGGAAGAUGUAUUCUUCUCAUAAGAUAUAGUCGGACCUCUCCUUAAUGGGAGCUAGCGGAUGAAGUGAUGCAACACUGGAGCCGCUGGGAACUAAUUUGUAUGCGAAAGUAUAUUGAUUAGUUUUGGAGUACUCGUGGUCG
How it was run: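 Fitness was computed with DiMSum as the error-weighted combination of replicate fold changes, kanamycin versus none, each normalised to wild type. The library randomised all eight intron nucleotides of the P1ex region, with the intron placed in the knt kanamycin-resistance gene on pET-22b(+) in E. coli BL21(DE3). Six replicate transformations were grown overnight at 37°C or 30°C on LB agar with or without 25 μg/mL kanamycin, plus 100 μg/mL carbenicillin, 50 μM IPTG and 0.2% rhamnose. Pooled colonies were amplicon-sequenced on an Illumina HiSeq 2500.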

| Sequence | self-splicing fitness (ln) (30 °C) | self-splicing fitness (ln) (37 °C) |
| --- | --- | --- |
| AGACAGCAAUAUUACGCUAG | -4.3 ± 0.3 | -2.81 ± 0.22 |
| AGACAGCAAUAUUACGGCCA | -1.28 ± 0.11 | -0.142 ± 0.11 |
| AGACAGCAAUAUUACGGGUG | -3.07 ± 0.09 | -2.37 ± 0.1 |
| AGACAGCAAUAUUACGUAAG | -1.33 ± 0.075 | -0.396 ± 0.088 |
| AGACAGCAAUAUUACGUGUC | -3.93 ± 0.21 | -3.7 ± 0.2 |
| AGACAGCAAUAUUACGUGUU | -3.8 ± 0.16 | -2.29 ± 0.14 |
| AGACAGCAAUAUUACGUUGC | -3.73 ± 0.24 | -3.26 ± 0.37 |
| AGAGAGCAAUAUUACGAGCA | -2.68 ± 0.46 | -1.31 ± 0.27 |
| AGAGAGCAAUAUUACGAUCU | -4.39 ± 0.42 | -2.22 ± 0.2 |
| AGAGAGCAAUAUUACGCACU | -3.16 ± 0.34 | -2.41 ± 0.32 |
| AGAGAGCAAUAUUACGCAUC | -2.22 ± 0.28 | -1.91 ± 0.22 |
| AGAGAGCAAUAUUACGCCUA | -2.6 ± 0.48 | -1.08 ± 0.33 |
| AGAGAGCAAUAUUACGCCUU | -3.56 ± 0.29 | -2.16 ± 0.21 |
| AGAGAGCAAUAUUACGCGCC | -2.58 ± 0.46 |  |
| AGAGAGCAAUAUUACGCGGC | -2.71 ± 0.26 |  |
| AGAGAGCAAUAUUACGCUAC |  | -2.33 ± 0.45 |
| AGAGAGCAAUAUUACGCUUG | -2.97 ± 0.3 | -2.46 ± 0.35 |
| AGAGAGCAAUAUUACGCUUU | -3.54 ± 0.41 | -2.52 ± 0.45 |
| AGAGAGCAAUAUUACGGAAU | -3.36 ± 0.32 | -1.79 ± 0.44 |
| AGAGAGCAAUAUUACGGAGA |  | -2.11 ± 0.37 |
| AGAGAGCAAUAUUACGGAUC | -3.76 ± 0.42 |  |
| AGAGAGCAAUAUUACGGCGA | -2.95 ± 0.39 | -1.82 ± 0.39 |
| AGAGAGCAAUAUUACGGCUC | -3.01 ± 0.27 | -1.37 ± 0.25 |
| AGAGAGCAAUAUUACGGGAC |  | -2.61 ± 0.44 |
| AGAGAGCAAUAUUACGGGUU | -4.74 ± 0.46 | -2.08 ± 0.23 |

| Sequence | self-splicing fitness (ln) (30 °C) | self-splicing fitness (ln) (37 °C) |
| --- | --- | --- |
| AGAGAGCAAUAUUACGGUGC | -4.34 ± 0.42 | -2.07 ± 0.29 |
| AGAGAGCAAUAUUACGUAAG | -3.25 ± 0.26 | -2.7 ± 0.36 |
| AGAGAGCAAUAUUACGUAAU | -4.18 ± 0.33 | -2.81 ± 0.34 |
| AGAGAGCAAUAUUACGUAUC |  | -2.03 ± 0.17 |
| AGAGAGCAAUAUUACGUCGA | -2 ± 0.32 |  |
| AGAGAGCAAUAUUACGUGCU |  | -1.44 ± 0.28 |
| AGAUAGCAAUAUUACGACCG | -1.01 ± 0.17 | 0.121 ± 0.32 |
| AGAUAGCAAUAUUACGAGGC | -0.902 ± 0.39 | -0.819 ± 0.21 |
| AGAUAGCAAUAUUACGAUAC | -3.11 ± 0.26 | -0.943 ± 0.19 |
| AGAUAGCAAUAUUACGAUCG | 0.112 ± 0.058 | 0.0462 ± 0.1 |
| AGAUAGCAAUAUUACGAUUG | -1.65 ± 0.11 | -1.81 ± 0.18 |
| AGAUAGCAAUAUUACGCAAG | -2.2 ± 0.15 | -0.0746 ± 0.16 |
| AGAUAGCAAUAUUACGCACA | -0.827 ± 0.07 | -0.123 ± 0.087 |
| AGAUAGCAAUAUUACGCAUU | -2.76 ± 0.21 | -1.02 ± 0.21 |
| AGAUAGCAAUAUUACGCGUC | -2.53 ± 0.2 | -0.587 ± 0.47 |
| AGAUAGCAAUAUUACGGAGU | -3.25 ± 0.15 | -2.33 ± 0.15 |
| AGAUAGCAAUAUUACGGGCA | -1.12 ± 0.13 | 0.0415 ± 0.12 |
| AGAUAGCAAUAUUACGGGGA | -3.46 ± 0.31 | -3.05 ± 0.35 |
| AGAUAGCAAUAUUACGGGUA | -1.35 ± 0.11 | -1.8 ± 0.14 |
| AGAUAGCAAUAUUACGGUGU | -2.01 ± 0.096 | -1.15 ± 0.1 |
| AGAUAGCAAUAUUACGUACC | -0.423 ± 0.13 | 0.0629 ± 0.14 |
| AGAUAGCAAUAUUACGUACG | -1.38 ± 0.096 | -0.00695 ± 0.11 |
| AGAUAGCAAUAUUACGUAUU | -2.63 ± 0.14 | -1.35 ± 0.12 |
| AGAUAGCAAUAUUACGUCGU | -1.21 ± 0.082 | -0.136 ± 0.099 |
| AGAUAGCAAUAUUACGUGCG | -1.19 ± 0.06 | -0.409 ± 0.081 |

| Sequence | self-splicing fitness (ln) (30 °C) | self-splicing fitness (ln) (37 °C) |
| --- | --- | --- |
| AGAUAGCAAUAUUACGUUCC | -1.62 ± 0.2 | -1.48 ± 0.23 |
| AGAUAGCAAUAUUACGUUCG | -0.335 ± 0.1 | 0.123 ± 0.14 |
| AGAUAGCAAUAUUACGUUCU | -2.38 ± 0.14 | -2.02 ± 0.17 |
| AGAUAGCAAUAUUACGUUGA | -3.51 ± 0.24 | -1.5 ± 0.14 |
| AGCAAGCAAUAUUACGAACA | -0.765 ± 0.099 | -0.407 ± 0.12 |
| AGCAAGCAAUAUUACGAAUC | -4.48 ± 0.42 | -1.81 ± 0.2 |
| AGCAAGCAAUAUUACGACCC | -0.234 ± 0.18 | -0.196 ± 0.25 |
| AGCAAGCAAUAUUACGACGA | -0.884 ± 0.14 | -0.398 ± 0.16 |
| AGCAAGCAAUAUUACGAGCG | 0.283 ± 0.061 | -0.223 ± 0.076 |
| AGCAAGCAAUAUUACGAUAU | -2.16 ± 0.13 | -1.51 ± 0.11 |
| AGCAAGCAAUAUUACGAUUC | -2.18 ± 0.13 | -1.04 ± 0.15 |
| AGCAAGCAAUAUUACGCAAC | -3.99 ± 0.31 |  |
| AGCAAGCAAUAUUACGCACU | -1.89 ± 0.11 | -1.37 ± 0.14 |
| AGCAAGCAAUAUUACGCCGA | -0.81 ± 0.15 | -0.63 ± 0.17 |
| AGCAAGCAAUAUUACGCCGC | -2.89 ± 0.45 | -2.68 ± 0.45 |
| AGCAAGCAAUAUUACGCCUA | -0.835 ± 0.08 | -0.537 ± 0.084 |
| AGCAAGCAAUAUUACGCGCG | -1.54 ± 0.072 | -0.145 ± 0.09 |
| AGCAAGCAAUAUUACGCGGA | -2.04 ± 0.13 | -0.823 ± 0.099 |
| AGCAAGCAAUAUUACGCUAU | -2.4 ± 0.1 | -2.25 ± 0.15 |
| AGCAAGCAAUAUUACGCUCG | -2.82 ± 0.27 |  |
| AGCAAGCAAUAUUACGGAAA | -3.46 ± 0.18 | -1.03 ± 0.11 |
| AGCAAGCAAUAUUACGGACU | -0.137 ± 0.084 | -0.455 ± 0.094 |
| AGCAAGCAAUAUUACGGAUU | -1.94 ± 0.07 | -0.407 ± 0.084 |
| AGCAAGCAAUAUUACGGCUG | -0.939 ± 0.077 | -1.4 ± 0.13 |
| AGCAAGCAAUAUUACGGUAG | -3.4 ± 0.14 | -2.75 ± 0.15 |

| Sequence | self-splicing fitness (ln) (30 °C) | self-splicing fitness (ln) (37 °C) |
| --- | --- | --- |
| AGCAAGCAAUAUUACGUCGC |  | -0.083 ± 0.23 |
| AGCAAGCAAUAUUACGUGAG | -2.58 ± 0.087 | -1.44 ± 0.089 |
| AGCAAGCAAUAUUACGUGAU | -2.1 ± 0.072 | -1.32 ± 0.08 |
| AGCAAGCAAUAUUACGUUUC | -4.44 ± 0.25 | -2.09 ± 0.15 |
| AGCCAGCAAUAUUACGAAUU | -3.14 ± 0.15 | -1.44 ± 0.11 |
| AGCCAGCAAUAUUACGAGUU | -1.84 ± 0.086 | -0.293 ± 0.081 |
| AGCCAGCAAUAUUACGCACC | -0.939 ± 0.18 | -1.12 ± 0.18 |
| AGCCAGCAAUAUUACGCCAU | -1.5 ± 0.2 | -1.89 ± 0.32 |
| AGCCAGCAAUAUUACGCGAG | -1.65 ± 0.13 | -1.29 ± 0.16 |
| AGCCAGCAAUAUUACGCGUC | -2.8 ± 0.13 | -1.23 ± 0.12 |
| AGCCAGCAAUAUUACGCUUC | -3.53 ± 0.22 | -3.48 ± 0.29 |
| AGCCAGCAAUAUUACGCUUG | -3.52 ± 0.17 | -1.58 ± 0.17 |
| AGCCAGCAAUAUUACGGAGG | -3.01 ± 0.14 | -1.8 ± 0.26 |
| AGCCAGCAAUAUUACGGCCU | -2.07 ± 0.14 | -0.992 ± 0.15 |
| AGCCAGCAAUAUUACGGCUA | -2.42 ± 0.15 | -0.727 ± 0.11 |
| AGCCAGCAAUAUUACGGGAU | -4 ± 0.17 | -2.05 ± 0.12 |
| AGCCAGCAAUAUUACGGUAC | -2.97 ± 0.2 | -1.24 ± 0.13 |
| AGCCAGCAAUAUUACGUAAC | -2.67 ± 0.1 | -2.04 ± 0.2 |
| AGCCAGCAAUAUUACGUCCG | -3.12 ± 0.24 | -1.71 ± 0.29 |
| AGCCAGCAAUAUUACGUGAC | -3.29 ± 0.17 | -2.05 ± 0.19 |
| AGCCAGCAAUAUUACGUGGA | -3.81 ± 0.18 | -2.65 ± 0.14 |
| AGCCAGCAAUAUUACGUGGG | -3.16 ± 0.13 | -1.3 ± 0.11 |
| AGCCAGCAAUAUUACGUGUU | -3.62 ± 0.11 | -1.56 ± 0.087 |
| AGCCAGCAAUAUUACGUUAG | -3.07 ± 0.14 | -2.28 ± 0.16 |
